Patent US10857209B2, “Lysosomal acid lipase and PPAR gamma ligands as immune therapies for cancer treatment” (Indiana University Research and Technology Corporation, priority 2016, dated 2020)

Legend:
[1] = test system: B16 melanoma cells; assay: Mouse metastasis model, pre-treated MDSCs co-injected intravenously with B16 melanoma cells; format: in vivo; settings: two weeks
Procedure: The tumor growth and metastasis model were described in Zhao et al., Oncogene. 2015; 34:1938-48. MDSCs and B16 melanoma cells were collected separately. A pilot study was performed to determine the best ratio between MDSCs and B16 melanoma cells. To test the tumor growth potential, 6×10^5 pre-treated MDSCs and 2×10^5 B16 melanoma cells were mixed, centrifuged and re-suspended in 100 μL PBS, and then injected subcutaneously into the flank region of 3-month old recipient lal^+/+ mice. Tumor volume (length×width^2×π/6) was monitored every week for 4 weeks. To test the metastasis potential, 2×10^6 pre-treated MDSCs and 5×10^5 B16 melanoma cells were mixed and incubated at 37° C., 5% CO2 for 30 minutes. After the incubation, cells were centrifuged, re-suspended, and injected intravenously into 3-month old lal^+/+ mice. Two weeks after the injection, the mice were sacrificed and the lungs were inflated with 4% paraformaldehyde for examination of metastasis.
The harvested lungs were fixed with 4% paraformaldehyde in PBS at 4° C. for overnight. After fixation and embedding in paraffin, tissue sections were cut to 5 μm thick. Hematoxylin and eosin (H&E) staining and immunohistochemical (IHC) staining with anti-Ki67 antibody were performed by the Histological Core Facility, Department of Pathology and Laboratory Medicine, Indiana University. Images were taken by Olympus microscopy image system (Olympus, Tokyo, Japan).

[2] = Histology and morphometry of organs in CCSP-Tg/KO mice (lung epithelial hLAL expression); format: in vivo, mouse
From the text: Wild-type (lal^+/+) and lal^−/− mice of the FVB/N background were bred in house. CCSP-rtTA/(TetO)7-CMV-hLAL; lal^−/− (CCSP-Tg/KO) triple mice were generated by crossbreeding previously made CCSP-rtTA transgenic mice and (TetO)7-CMV-hLAL transgenic mice into lal^−/− mice. This triple transgenic mouse model is lung AT II epithelial cells-specific Tet-on expression of wild-type human LAL (hLAL) in lal^−/− mice under the control of the CCSP promoter. All scientific protocols involving the use of animals were approved by the Institutional Animal Care and Use Committee of Indiana University School of Medicine and followed guidelines established by the Panel on Euthanasia of the American Veterinary Medical Association. Animals were housed under Institutional Animal Care and Use Committee-approved conditions in a secured animal facility at Indiana University School of Medicine.
The lungs were harvested and fixed with 4% paraformaldehyde in PBS at 4° C. overnight. After embedding in paraffin, tissue sections were cut to 5 μm thick. Hematoxylin and eosin (H&E) staining was performed by the Histological Core Facility, Department of Pathology and Laboratory Medicine, Indiana University. […] Images were analyzed by Nikon NIS Elements imaging software. […] The alveoli were assessed by area, diameter and perimeter using the integrated morphometry analysis tool. […]

[3] = test system: pulmonary endothelial cells (ECs); assay: In vitro BALF treatment of pulmonary endothelial cells (proliferation, wound healing); format: cell-based, mouse
Procedure: ECs were isolated from lal^+/+ lungs and cultured in vitro. Briefly, the mouse was anesthetized and 1 mL collagenase A (2 mg/mL, Roche, Indianapolis, Ind., USA) was infused into the lung through the trachea. The lung was removed and then incubated with 10 mL collagenase A at 37° C. for 30 minutes. After the incubation, the resulting cell suspension was filtered through a 40 μm strainer and centrifuged for 5 minutes at 1,500 rpm. After removal of the supernatant, the cell pellet was subjected to magnetic bead sorting using anti-CD31 microbeads (Miltenyi Biotec., Auburn, Calif., USA) according to the manufacturer's protocol. The resulting cells were plated onto gelatin-coated (Sigma-Aldrich) 6-well plates and maintained in DMEM supplemented with endothelial cell growth supplement, heparin, L-Glutamine (Sigma-Aldrich), FBS, and Antibiotic-Antimycotic (Gibco).
To examine the effect of BALF on EC proliferation, 5×10^4 ECs were seeded into a well of 24-well plates in 250 μL DMEM supplemented with 10% FBS, and then treated with 250 μL BALF harvested from lal^+/+, lal^−/− or CCSP-Tg/KO triple mice. Seventy-two hours later, the number of ECs was counted.
To analyze the effects of BALF on tumor cell or EC migration, in vitro wound healing assays were performed. […]

[4] = test system: CD4+ T cells; assay: T cell proliferation assay with BALF cells of CCSP-Tg/KO mice; format: cell-based, mouse; settings: BALF cells from doxycycline-treated CCSP-Tg/KO mice; BALF cells:CD4+ T cells 1:5, 4 days
Procedure: To determine the immunosuppressive effects of BALF cells, BALF was harvested by PBS. After the centrifugation, the resulting cell pellets were collected and used. CD4^+ T cells were prepared and CFSE labeled as we previously described (15). Labeled CD4^+ T cells were co-cultured with BALF cells in 96-well plates pre-coated with anti-CD3 monoclonal antibody (mAb) (2 μg/mL) and anti-CD28 mAb (5 μg/mL) at 37° C., 5% CO2 for 4 days. The ratio of BALF cells:CD4^+ T cells was 1:5. Proliferation of CD4^+ T cells was evaluated as CFSE dilution by FACS.

[5] = pre-treated lal−/− Ly6G+ cells + B16 i.v.

9-hydroxyoctadecadienoic acid [9-HODE]
B16 melanoma colonization in the lung ([1]; pre-treated lal+/+ Ly6G+ cells + B16 i.v.): did not affect B16 melanoma colonization in the lung
B16 melanoma colonies in the lungs ([1]; pre-treated lal−/− Ly6G+ cells + B16 i.v. into lal+/+ mice, vs ethanol): less B16 melanoma colonies
Ki67 positive cells in lung sections (IHC staining) [1, 5]: less Ki67 positive cells
neoplastic cells in lung sections (H&E staining) [1, 5]: less neoplastic cells

B1: hLAL: human lysosomal acid lipase expressed from a doxycycline-controlled tissue-specific transgene in lal−/− mice; never administered as a protein (protein)
chain: GPKPVVFLQHGLLADSSNWVTNLANSSLGFILADAGFDVWMGNSRGNTWSRKHKTLSVSQDEFWAFSYDEMAKYDLPASINFILNKTGQEQVYYVGHSQGTTIGFIAFSQIPELAKRIKMFFALGPVASVAFCTSPMAKLGRLPDHLIKDLFGDKEFLPQSAFLKWLGTHVCTHVILKELCGNLCFLLCGFNERNLNMSRVDVYTTHSPAGTSVQNMLHWSQAVKFQKFQAFDWGSSAKNYFHYNQSYPPTYNVKDMLVPTAVWSGGHDWLADVYDVNILLTQITNLVFHESIPEWEHLDFIWGLDAPWRLYNKIINLMRKYQ
modifications: left off: small tags and cut ends
notes: human lysosomal acid lipase expressed from a doxycycline-controlled tissue-specific transgene in lal−/− mice; never administered as a protein
liver and spleen pathology ([2]; doxycycline-treated vs untreated CCSP-Tg/KO mice): no improvement in the liver and spleen
lung damage (emphysema, alveolar area, diameter, perimeter) ([2]; lung epithelial expression, doxycycline-treated CCSP-Tg/KO mice): partially restored
EC migration (wound healing) ([3]; BALF from doxycycline-treated CCSP-Tg/KO mice, 15 hours, mitomycin C): decreased EC migration
EC proliferation ([3]; lal+/+ ECs with BALF from doxycycline-treated CCSP-Tg/KO mice, 72 hours): decreased EC proliferation
inhibition of T cell proliferation by BALF cells [4]: reduced inhibition on T cell proliferation
